Measured values taken from paper PMC8944867 (Proceedings of the National Academy of Sciences of the …, 2022).

Tests used:
[1] = target: T1, HOIP UBA domain (human, UniProt Q96EP0 480-636); test: ITC
T1 sequence: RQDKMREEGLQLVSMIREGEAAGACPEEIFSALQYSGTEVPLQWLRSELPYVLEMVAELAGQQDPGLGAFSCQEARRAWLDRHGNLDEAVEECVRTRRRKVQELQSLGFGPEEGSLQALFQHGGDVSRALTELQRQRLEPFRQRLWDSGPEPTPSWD

[2] = target: T2, IpaH1.4 LRR domain (S. flexneri, UniProt A0A0H2USG1 38-283); test: ITC
T2 sequence: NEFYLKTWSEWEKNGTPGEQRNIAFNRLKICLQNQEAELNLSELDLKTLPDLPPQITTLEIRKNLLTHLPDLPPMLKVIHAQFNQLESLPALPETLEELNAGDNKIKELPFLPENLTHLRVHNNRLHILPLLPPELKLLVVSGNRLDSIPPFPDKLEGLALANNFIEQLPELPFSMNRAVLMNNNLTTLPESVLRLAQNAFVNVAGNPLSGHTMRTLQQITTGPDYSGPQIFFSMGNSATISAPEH

B1: HOIL-1L UBL domain (domain or fragment)
chain: QDIRLWVSVEDAQMHTVTIWLTVRPDMTVASLKDMVFLDYGFPPVLQQWVIGQRLARDQETLHSHGVRQNGDSAYLYLLSARN
Kd [1]: 3.9 ± 0.4 µM | Kd [2]: 10.7 µM
